Test results as given in patent publication US7985739, “Enhanced sleeping beauty transposon system and methods for using the same” (The Board of Trustees of the Leland Stanford Junior …).

Legend:
[1] = test system: Sleeping Beauty transposase N123 HSB1 (mutations not given) (salmonid (reconstructed)); experiment: EMSA; details: no change vs WT
[2] = test system: Sleeping Beauty transposase HSB-5 K13A,K33A,T83A,S270A (salmonid (reconstructed)); experiment: cell_activity; details: transposition in HeLa, G418R colonies
[3] = test system: Sleeping Beauty transposase K33A K33A (salmonid (reconstructed)); experiment: cell_activity; details: transposition in HeLa; text says improved 400%
[4] = test system: Sleeping Beauty transposase S270A S270A (salmonid (reconstructed)); experiment: cell_activity; details: transposition in HeLa
[5] = molecular target: T1, Sleeping Beauty transposase N123 (WT) (salmonid (reconstructed)); experiment: EMSA; poly(dI)(dC), 22 C; 500-fold cold oligo used as specific competitor; details: tags: pGADT7 TNT T7 reticulocyte lysate; label: 32P
T1 chain: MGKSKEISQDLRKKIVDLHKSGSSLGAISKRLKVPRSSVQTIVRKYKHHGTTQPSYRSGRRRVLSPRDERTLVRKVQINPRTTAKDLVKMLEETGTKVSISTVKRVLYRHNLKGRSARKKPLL
Method: (§1) Truncated (N123) derivatives of wild-type and mutant SB proteins were generated using the TNT T7 coupled reticulocyte lysate system (Promega) according to the manufacturer's instructions. Double-stranded oligonucleotides corresponding to the outer and inner direct repeats (DRs) from SB's left inverted repeat (IR) were end-labeled using [γ-^32P]ATP and PNK. Complexes were formed in a 10 μl volume containing 10 fmol labeled oligonucleotide, 6 μl of in vitro translation product, 1 μg poly(dI)(dC), and binding buffer as previously described (Ivics et al., 1997). For competitions, increasing amounts (1-500 nM) of the corresponding unlabeled oligonucleotide was added to the reaction. After a 90 minute incubation at 22° C., 5 μl of loading dye was added and each sample was resolved on a 5% polyacrylamide gel for 2-3 hours at 120 volts. Binding affinities were determined by measuring the ratio of bound vs. free radiolabeled probe using a Phosphorimager, and normalized according to the amount bound in the absence of cold competitor minus the amount bound at the highest competitor concentration.

[6] = molecular target: T2, Sleeping Beauty transposase N123 L25A (salmonid (reconstructed), L25A); experiment: EMSA; details: tags: pGADT7 TNT T7 reticulocyte lysate; label: 32P
T2 chain: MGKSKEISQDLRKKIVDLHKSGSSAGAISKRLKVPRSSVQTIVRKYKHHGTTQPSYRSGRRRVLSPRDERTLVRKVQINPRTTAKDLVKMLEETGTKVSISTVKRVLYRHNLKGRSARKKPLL
Method: as §1

[7] = molecular target: T3, Sleeping Beauty transposase N123 R36A (salmonid (reconstructed), R36A); experiment: EMSA; details: tags: pGADT7 TNT T7 reticulocyte lysate; label: 32P
T3 chain: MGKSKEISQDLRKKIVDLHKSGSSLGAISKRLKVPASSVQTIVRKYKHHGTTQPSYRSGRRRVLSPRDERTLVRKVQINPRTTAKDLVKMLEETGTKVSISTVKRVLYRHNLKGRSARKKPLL
Method: as §1

[8] = molecular target: T4, Sleeping Beauty transposase N123 I42A (salmonid (reconstructed), I42A); experiment: EMSA; details: tags: pGADT7 TNT T7 reticulocyte lysate; label: 32P
T4 chain: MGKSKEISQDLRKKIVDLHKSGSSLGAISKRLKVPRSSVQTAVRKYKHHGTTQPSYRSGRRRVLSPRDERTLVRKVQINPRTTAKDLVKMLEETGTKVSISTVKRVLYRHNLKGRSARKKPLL
Method: as §1

[9] = molecular target: T5, Sleeping Beauty transposase N123 HSB3 (salmonid (reconstructed), K13A,K33A,T83A); experiment: EMSA; no change vs WT; details: tags: pGADT7 TNT T7 reticulocyte lysate; label: 32P
T5 chain: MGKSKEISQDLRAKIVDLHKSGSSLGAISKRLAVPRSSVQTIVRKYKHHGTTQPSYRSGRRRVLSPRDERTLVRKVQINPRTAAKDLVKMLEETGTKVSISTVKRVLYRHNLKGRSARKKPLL
Method: as §1
(§2) Figure 8: FIG. 8. is a comparison of the relative binding affinities of the WT and HSB mutants for transposon binding sites. SB-N123 peptides for WT and hyperactive transposases were complexed with double-stranded radiolabeled oligos encoding the inner (top panel) or outer (bottom panel) DR sequences. Protein-DNA complexes were formed in the presence of increasing amounts of the corresponding unlabeled oligonucleotide. The percent binding was determined using a Phosphorimager and normalized according to the amount of probe bound in the absence of any competitor minus the amount of probe bound at 500 nM.

[10] = molecular target: T6, Sleeping Beauty transposase N123 HSB2 (salmonid (reconstructed), K33A,L91A); experiment: EMSA; no change vs WT; details: tags: pGADT7 TNT T7 reticulocyte lysate; label: 32P
T6 chain: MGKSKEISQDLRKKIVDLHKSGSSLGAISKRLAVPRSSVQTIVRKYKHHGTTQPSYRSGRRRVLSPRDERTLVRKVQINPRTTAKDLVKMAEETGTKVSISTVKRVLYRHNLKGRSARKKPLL
Method: as §1, §2

[11] = molecular target: T7, Sleeping Beauty transposase N123 HSB4 (salmonid (reconstructed), K33A,T83A,L91A); experiment: EMSA; no change vs WT; details: tags: pGADT7 TNT T7 reticulocyte lysate; label: 32P
T7 chain: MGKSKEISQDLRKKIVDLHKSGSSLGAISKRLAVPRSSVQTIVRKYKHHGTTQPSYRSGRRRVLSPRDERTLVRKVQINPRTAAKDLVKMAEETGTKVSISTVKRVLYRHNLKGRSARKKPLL
Method: as §1, §2

[12] = molecular target: T5, Sleeping Beauty transposase N123 HSB3; experiment: EMSA; cold competition, 1-500 nM; details: tags: pGADT7 TNT T7 reticulocyte lysate; label: 32P
Method: as §1, §2

[13] = molecular target: T6, Sleeping Beauty transposase N123 HSB2; experiment: EMSA; cold competition, 1-500 nM; details: tags: pGADT7 TNT T7 reticulocyte lysate; label: 32P
Method: as §1, §2

[14] = molecular target: T7, Sleeping Beauty transposase N123 HSB4; experiment: EMSA; cold competition, 1-500 nM; details: tags: pGADT7 TNT T7 reticulocyte lysate; label: 32P
Method: as §1, §2

“TCCAGTGGGTCAGAAGTTTACATACACTAAGT (double strand) [inner DR of SB left IR]” showed a binding signal (fold affinity vs WT) [1] of 1.

With “pT/nori neomycin-marked SB transposon (full sequence not given)” the activity [2] was over 10 fold vs WT, the activity [3] was 400 % of WT and the activity [4] was 186 % of WT.

B1: inner DR of SB left IR (dsDNA)
DNA 1: TCCAGTGGGTCAGAAGTTTACATACACTAAGT
DNA 2: ACTTAGTGTATGTAAACTTCTGACCCACTGGA
B1: binds [5]; binds [6]; binds [7]. The binding result [8] was “binds”, the binding signal [9] was 1 fold affinity vs WT and the binding signal [10] was 1 fold affinity vs WT. It also gave a binding signal [11] of 1 fold affinity vs WT.

B2: outer DR of SB left IR (dsDNA)
DNA 1: TACAGTTGAAGTCGGAAGTTTACATACACTTAGG
DNA 2: CCTAAGTGTATGTAAACTTCCGACTTCAACTGTA
With B2 the binding result [5] was “binds”, the binding signal [12] was 2 fold affinity vs WT and the binding result [13] was “binds”. B2: binds [14].
